Results as given in patent US20090203760A1 (UNIVERSITY OF QUEENSLAND, published 2009).
Bridges are numbered along the chain shown (N, C = ends). Where no end group is shown, it is not given here. [ ]: non-standard residue; d: D form. NMeF = CN[C@@H](Cc1ccccc1)C(=O)O; dCha = N[C@H](CC1CCCCC1)C(=O)O

T1: human C5a receptor (C5aR) on intact human polymorphonuclear leukocytes (PMNs) (human, UniProt P21730 1-350)
T1 construct: whole, on cells; Native receptor on fresh human PMNs; not a recombinant construct; also called PMN C5aR
T1 sequence (looked up): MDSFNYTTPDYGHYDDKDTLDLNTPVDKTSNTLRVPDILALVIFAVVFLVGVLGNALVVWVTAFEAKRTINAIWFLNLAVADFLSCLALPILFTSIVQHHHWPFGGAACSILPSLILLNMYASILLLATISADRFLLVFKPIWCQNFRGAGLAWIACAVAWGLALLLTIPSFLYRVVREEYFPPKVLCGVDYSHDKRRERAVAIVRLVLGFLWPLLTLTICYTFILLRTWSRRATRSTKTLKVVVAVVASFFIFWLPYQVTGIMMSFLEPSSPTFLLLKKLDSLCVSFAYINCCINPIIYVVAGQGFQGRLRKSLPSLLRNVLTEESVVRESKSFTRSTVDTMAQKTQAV


Experiments:
[1] = target: human C5a receptor (C5aR) on intact human polymorphonuclear leukocytes (PMNs) (human) (UniProt P21730); assay: cell-based or functional assay
[2] = target: human C5a receptor (C5aR) on intact human polymorphonuclear leukocytes (PMNs) (human) (UniProt P21730); assay: 50% inhibition of [125I]C5a binding to intact PMNs
[3] = target: T1, human C5a receptor (C5aR) on intact …; assay: 50% inhibition of [125I]C5a binding to intact PMNs; column head prints 'IC50 (M)', the pD2 shows µM
[4] = target: T1, human C5a receptor (C5aR) on intact …; assay: unlabelled C5a competing with 125I-C5a for binding to intact human PMNs, 4 °C
[5] = target: human C5a receptor (C5aR) on intact human polymorphonuclear leukocytes (PMNs) (human) (UniProt P21730); assay: 50% inhibition of [125I]C5a binding to intact PMNs; column head prints 'IC50 (M)', the pD2 shows µM
[6] = target: T1, human C5a receptor (C5aR) on intact …; assay: competition with 125I-C5a for binding to intact human PMNs, 4 °C
[7] = target: T1, human C5a receptor (C5aR) on intact …; assay: cell-based or functional assay
[8] = target: T1, human C5a receptor (C5aR) on intact …; assay: cell-based or functional assay; remark: listed apart in the source

Row | pD2: 50% inhibition in the ability of C5a (100 nM) to cause the release of MPO from PMNs [1] | pD2 [2] | IC50: 50% inhibition in the ability of C5a (100 nM) to cause the release of MPO from PMNs [1] [µM] | Molecule | further results
1 | 7.07 | – | – | AcF-[KPdChaWr] (peptide) | –
2 | 7.3 | 4.6 | – | AcF-[OPdChaWr] (peptide) | in vitro activity as a C5a antagonist in PMNs, against 17 [1]: 100 fold
3 | 6.69 | 6.5 | 0.2 | F-[KPdChaWR] (peptide) | IC50 [2]: 0.3 µM
4 | 5.55 | 5.09 | 2.8 | F-[KPdChaWr] (peptide) | IC50 [2]: 8.1 µM
5 | 7.41 | 7.21 | 0.04 | F-[OPdChaWR] (peptide) | IC50 [2]: 0.06 µM
6 | 5.79 | 5.51 | 1.6 | F-[OPdChaWr] (peptide) | IC50 [2]: 3.1 µM
7 | – | – | – | KFXPXWR (N-acetyl-Lys at 1; ornithine (O) at 3; D-cyclohexylalanine (dCha) at 5; D-Arg at 7; cyclic over residues 3-7 (ornithine side chain to C-terminus), Cyclic) [AcKF-[OPdChaWr]] | IC50 [3]: 11 µM
8 | – | – | – | human recombinant C5a (ligand, UniProt P01031 678-751, looked up, tracer form: Hunter/Bolton labelled 125I (New England Nuclear); unlabelled competitor form: none stated, mature) TLQKKIEEIAAKYKHSVVKKCCYDGACVNNDETCEQRAARISLGPRCIKAFTECCVVASQLRANISHKDMQLGR | IC50 [4]: 0.0008 µM
9 | 4.88 | 3.94 | 13 | Ac-FKK[dCha]W[dR] (lactam 2-C; SMILES CC(=O)N[C@@H](Cc1ccccc1)C(=O)N[C@H]1CCCCNC(=O)[C@@H](CCCNC(=N)N)NC(=O)[C@H](Cc2c[nH]c3ccccc23)NC(=O)[C@@H](CC2CCCCC2)NC(=O)[C@H](CCCCN)NC1=O) [AcF-[KKdChaWr]] | IC50 [5]: 116 µM
10 | – | 4.81 | – | FKMXWR (N-acetyl-Phe at 1; D-cyclohexylalanine (dCha) at 4; D-Arg at 6; cyclic over residues 2-6 (Lys side chain to C-terminus)) [AcF-[KMdChaWr]] | IC50 [5]: 15 µM
11 | – | – | – | [NMeF]KP[dCha]WR (Linear; 7 with the chirality of Arg changed; also called ID NO:9) [MeFKP(dCha)WR] | IC50 [6]: 11 µM
12 | – | 4.37 | – | cyclo(FWP[dCha]W[dR]) (SMILES N=C(N)NCCC[C@H]1NC(=O)[C@H](Cc2c[nH]c3ccccc23)NC(=O)[C@@H](CC2CCCCC2)NC(=O)[C@@H]2CCCN2C(=O)[C@H](Cc2c[nH]c3ccccc23)NC(=O)[C@H](Cc2ccccc2)NC1=O) [[FWPdChaWr]] | IC50 [5]: 43 µM
13 | – | – | – | [NMeF]KP[dCha]W[dR]-NH2 (Linear; C-terminal amide of 7; also called ID NO:8) [MeFKP(dCha)Wr-CONH2] | antagonist activity against 7 (myeloperoxidase release from human PMNs) [7]: ~5 fold; Antagonist Potency IC50: 50% reduction in myeloperoxidase secretion from human PMNs mediated by 100 nM C5a [8]: 0.5 µM; IC50 [6]: 14 µM
14 | – | – | – | [NMeF]KPLWR (Linear; dCha replaced by Leu; also called 10; ID NO:10) [MeFKPLWR] | Antagonist Potency IC50: 50% reduction in myeloperoxidase secretion from human PMNs mediated by 100 nM C5a [8]: > 1000 µM; IC50 [6]: 144 µM
